Experimental data reported in patent publication US6416987B1, “Mutants of thymidylate synthase and uses thereof” (Sloan Kettering Institute for Cancer Research, priority 1997, dated 2002).
Where a chain is given by its changes, count along the chain named. Names may count otherwise. “Also recorded” adds a separate entry of the source. Like-named read-outs stand apart in the source and are kept apart here.

B1: I108A: human TS mutant Ile108→Ala (protein)
chain: MPVAGSELPRRPLPPAAQERDAEPRPPHGELQYLGQIQHILRCGVRKDDRTGTGTLSVFGMQARYSLRDEFPLLTTKRVFWKGVLEELLWFIKGSTNAKELSSKGVKAWDANGSRDFLDSLGFSTREEGDLGPVYGFQWRHFGAEYRDMESDYSGQGVDQLQRVIDTIKTNPDDRRIIMCAWNPRDLPLMALPPCHALCQFYVVNSELSCQLYQRSGDMGLGVPFNIASYALLTYMIAHITGLKPGDFIHTLGDAHIYLNHIEPLKIQLQREPRPFPKLRILRKVGKIDDFKAEDFQIEGYNPHPTIKMEMAV
B2: F225W: human TS mutant Phe225→Trp (protein)
chain: B1 chain with A108I, F225W
B3: Tyr33 to His33: literature human TS mutant found in a human colon tumor cell line (protein, UniProt P04818 2-313, looked up, variant Y33H)
Thymidylate synthase: PVAGSELPRRPLPPAAQERDAEPRPPHGELQHLGQIQHILRCGVRKDDRTGTGTLSVFGMQARYSLRDEFPLLTTKRVFWKGVLEELLWFIKGSTNAKELSSKGVKIWDANGSRDFLDSLGFSTREEGDLGPVYGFQWRHFGAEYRDMESDYSGQGVDQLQRVIDTIKTNPDDRRIIMCAWNPRDLPLMALPPCHALCQFYVVNSELSCQLYQRSGDMGLGVPFNIASYALLTYMIAHITGLKPGDFIHTLGDAHIYLNHIEPLKIQLQREPRPFPKLRILRKVEKIDDFKAEDFQIEGYNPHPTIKMEMAV

Legend:
[1] = test system: human thymidylate synthase; assay: Kinetic parameters of wild-type and mutant human thymidylate synthases; format: biochemical
Description: TS activity was monitored spectrophotometrically at 340 nm as described (Wahba et al., 1961). Activity was determined at 30° C. The assay mixture contained 50 mM Tris.HCl, pH 7.4, 25 mM MgCl2, 6.5 mM formadehyde, 1 mM EDTA, 75 mM BME and 100 μM dUMP, CH2H4folate (100 μM) was added to initiate the reaction. Black cuvettes lacked CH2H4folate. A unit of activity is defined as the amount of enzyme required to convert 1 μmol of dUMP to dTMP/minutes at 30° C. Protein was determined from OD280=0.87×10^5 M^−1 cm^−1, which is equivalent to 1.43 OD280/mg of protein.
Michaelis constants (Km's) for CH2H4folate and dUMP were determined from initial velocity measurements, which were obtained by measuring the change in OD340 with a Shimadzu UV-2101 PC spectrophotometer. […] Steady-state kinetic parameters were subsequently obtained by a nonlinear least-squares fit of the data to the Michaelis-Menten equation using a computer program. The kcats were calculated by dividing Vmax by the estimated concentration of enzyme used in the reaction.

[2] = test system: Mouse TS-negative cells (FSthy21); assay: Rescue of TS-negative cells by transfection of human TS cDNAs; format: cell-based; details: for TS catalytic function / complementation of growth of TS-negative cells: selective medium lacking thymidine; for FM3A TS cells surviving by transfection: selective medium without thymidine
Excerpt: Mouse TS-negative cells (FSthy21) were transfected with a plasmid (pcDNA3hTS*) encoding wild-type or a various mutant human TS enzyme by standard DOTAP transfection procedures. The host cells are deficient in TS, which are unable to survive without exogenous thymidine. […] In contrast, cells were unable to survive with transfection of other 11 human TS variants. For each surviving transfectant, at least 12 individual clones were isolated by soft agar or limiting dilution in 96-well plates. Those clones were expanded to cell lines by growth in normal media. Three cell clones for each transfectant were randomly selected for drug sensitivity assay.

human TS = human TS (Homo sapiens, UniProt P04818, Y33H); details: vs wild-type TS; cited from earlier work
[3] = CH2H4folate 3 mM, read-out: Km (dUMP)
[4] = dUMP fixed at 200 μM, read-out: Km (CH2H4folate)

Sequence of human TS (P04818 whole entry Y33H): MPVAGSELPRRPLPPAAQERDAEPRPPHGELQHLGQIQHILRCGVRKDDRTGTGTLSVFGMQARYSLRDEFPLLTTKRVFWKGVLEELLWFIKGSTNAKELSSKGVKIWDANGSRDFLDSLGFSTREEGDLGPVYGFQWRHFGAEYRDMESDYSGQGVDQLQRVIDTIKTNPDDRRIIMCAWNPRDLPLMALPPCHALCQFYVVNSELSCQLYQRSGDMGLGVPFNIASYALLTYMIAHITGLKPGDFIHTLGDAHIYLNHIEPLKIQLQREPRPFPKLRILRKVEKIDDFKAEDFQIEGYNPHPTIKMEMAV

Molecule | increase of Km for CH2H4folate over wild-type [1] | increase of Km for dUMP over wild-type [1] | kcat [1] | kcat lower than wild-type TS [1] | Km [1, 3] | Km [1, 4] | TS catalytic function / complementation of growth of TS-negative cells [2] | FM3A TS cells surviving by transfection [2] | drop in kcat (human TS)
B1 | 22 fold | 4 fold | 0.22 s⁻¹ | 3 fold | 15 µM | 746 µM | able to complement growth; also recorded: functional | yes | –
B2 | 4 fold | – | 2.3 s⁻¹ | – | 3.6 µM | 165 µM | able to complement growth; also recorded: active enzymes | yes | –
B3 | – | – | – | – | – | – | – | – | 8 fold
